From patent publication US20080153737A1

Experiments:
Test in all cases: cell-based or functional assay
[1] = molecular target: HIV env gp160 stably expressed on mouse melanoma B16 cells (gp160-B16) (HIV (strain not stated))
[2] = molecular target: HIV envelope protein (env, gp160/gp120) of HIV strain IIIB on infected cells and virus (HIV strain IIIB) (UniProt P04578)
[3] = molecular target: ErbB2 receptor on SKBR3 breast cancer cells (UniProt P04626)

| Substance | uptake of FITC-siRNA by implanted tumor cells after intravenous injection (fluorescence microscopy) [1] | reduction of HIV infection in primary CD4 T cells (p24 Ag ELISA of culture supernatants) [2] | reduction of HIV replication in infected primary CD4 cells (F105-P + irrelevant GFP siRNA condition) [2] | uptake of FITC-CD4 siRNA by an HIV IIIB-infected Jurkat culture, 24 h (flow cytometry) [2] | uptake of FITC-labeled siRNA by HIV-infected Jurkat cells (flow cytometry) (% of infected cells) [2] | reduction of HIV replication in infected primary CD4 cells (F105 + gag siRNA condition) [2] | delivery of FITC-siRNA into cells (flow cytometry) [3] |
| --- | --- | --- | --- | --- | --- | --- | --- |
| F105-protamine (Fab fragment of human anti-HIV gp120 antibody F105, heavy chain fused at its C-terminus to full-length protamine) (from UniProt P04553 1-51) | 30 % of cells | 30% | 25 to 28% | 21 % of cells | 40 | – | – |
| F105 (antibody Fab fragment against HIV envelope, lacking protamine) | – | 30% | – | – | – | 25 to 28% | – |
| single chain ErbB2 antibody protamine fusion protein ML39 ScFv-P (from UniProt P04553 8-29) | – | – | – | – | – | – | 32 % of cells |
